Data taken from doi:10.1101/786475 (bioRxiv, 2019).

What was measured:
Assay in all cases: peptide or protein array
[1] = target: Mal32p (spotted on the yeast ProtoArray) (S. cerevisiae, UniProt P38158 1-584)
[2] = target: T1, Qcr6p (spotted on the yeast ProtoArray) (S. cerevisiae, UniProt P00127 1-147)
T1 sequence (looked up): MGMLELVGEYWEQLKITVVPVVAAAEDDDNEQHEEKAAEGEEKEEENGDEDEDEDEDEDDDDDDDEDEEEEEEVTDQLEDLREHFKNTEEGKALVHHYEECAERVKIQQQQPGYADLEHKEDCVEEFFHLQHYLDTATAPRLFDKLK

[3] = target: T2, Pol30p (spotted on the yeast ProtoArray) (S. cerevisiae, UniProt P15873 1-258)
T2 sequence (looked up): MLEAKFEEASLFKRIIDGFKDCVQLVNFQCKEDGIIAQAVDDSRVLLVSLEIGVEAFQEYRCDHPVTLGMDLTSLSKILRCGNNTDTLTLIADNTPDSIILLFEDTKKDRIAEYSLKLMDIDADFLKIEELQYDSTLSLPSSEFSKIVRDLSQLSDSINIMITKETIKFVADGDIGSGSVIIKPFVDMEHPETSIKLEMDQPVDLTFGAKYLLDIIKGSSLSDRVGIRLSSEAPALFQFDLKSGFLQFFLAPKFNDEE

[4] = target: T3, Cap2p (spotted on the yeast ProtoArray) (S. cerevisiae, UniProt P13517 1-287)
T3 sequence (looked up): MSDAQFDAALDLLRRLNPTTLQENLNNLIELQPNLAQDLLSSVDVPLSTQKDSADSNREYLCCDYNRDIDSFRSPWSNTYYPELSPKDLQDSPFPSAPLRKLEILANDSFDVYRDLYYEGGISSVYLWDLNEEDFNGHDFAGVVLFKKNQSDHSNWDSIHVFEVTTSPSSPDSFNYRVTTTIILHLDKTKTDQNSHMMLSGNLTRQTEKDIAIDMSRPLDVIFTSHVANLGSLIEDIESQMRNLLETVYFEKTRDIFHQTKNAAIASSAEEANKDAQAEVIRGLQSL

[5] = target: T4, Erg20p (spotted on the yeast ProtoArray) (S. cerevisiae, UniProt P08524 1-352)
T4 sequence (looked up): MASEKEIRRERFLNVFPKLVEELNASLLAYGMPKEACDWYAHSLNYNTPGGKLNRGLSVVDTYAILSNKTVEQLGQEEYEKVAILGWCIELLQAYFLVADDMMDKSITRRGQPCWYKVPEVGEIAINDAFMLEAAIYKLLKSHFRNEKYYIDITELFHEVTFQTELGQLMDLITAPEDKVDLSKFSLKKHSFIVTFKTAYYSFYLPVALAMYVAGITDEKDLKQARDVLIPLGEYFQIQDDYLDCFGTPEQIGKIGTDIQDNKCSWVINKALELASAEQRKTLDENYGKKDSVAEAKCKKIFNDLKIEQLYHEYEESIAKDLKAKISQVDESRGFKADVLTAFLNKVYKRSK

Measured: binding result

Sequence of Mal32p (spotted on the yeast ProtoArray) (P38158 whole entry): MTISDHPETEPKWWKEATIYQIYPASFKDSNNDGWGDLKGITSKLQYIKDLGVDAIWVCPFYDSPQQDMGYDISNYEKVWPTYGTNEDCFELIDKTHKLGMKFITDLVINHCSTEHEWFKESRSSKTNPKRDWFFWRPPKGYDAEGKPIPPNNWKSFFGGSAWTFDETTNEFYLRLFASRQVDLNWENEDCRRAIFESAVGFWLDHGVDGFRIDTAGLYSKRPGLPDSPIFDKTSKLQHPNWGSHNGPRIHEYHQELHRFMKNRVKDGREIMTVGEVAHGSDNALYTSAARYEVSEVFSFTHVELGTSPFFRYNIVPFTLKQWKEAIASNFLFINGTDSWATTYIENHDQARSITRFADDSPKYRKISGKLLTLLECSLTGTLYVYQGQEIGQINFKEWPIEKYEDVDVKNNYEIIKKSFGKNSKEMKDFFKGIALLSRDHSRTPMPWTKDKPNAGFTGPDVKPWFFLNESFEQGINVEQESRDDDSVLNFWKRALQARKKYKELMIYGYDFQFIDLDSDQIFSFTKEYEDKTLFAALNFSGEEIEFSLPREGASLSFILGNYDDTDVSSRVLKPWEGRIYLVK

B1: purified and biotinylated cytoplasmic domain of the Msb2p protein (HIS-Msb2p^CYT) (domain or fragment, S. cerevisiae, UniProt P32334 1207-1306, looked up)
chain: AFKYIIRRRIQSQEIIKNPEISSISSSEFGGEKNYNNEKRMSVQESITQSMRIQNWMDDSYYGHGLTNNDSTPTRHNTSSSIPKISRPIASQNSLGWNEV
modifications: biotinylated in vitro (sites not given)
binds: [1] | [2] | [3] | [4] | [5]
